The text below walks through data of patent US20240166738A1 (priority 2021, published 2024).

This assay concerns the target GST-TMEM106B (truncated, comprising amino acids 122-210 of SEQ ID NO:1) (Homo sapiens, UniProt Q9NUM4). As to the kind of experiment: Pre-mix epitope binning of anti-TMEM106B antibodies (Carterra / Lake Pharma). Further details: key to epitope bin: Bin 1: competes for binding to the same or overlapping TMEM106B region as the TM1, TM17, TM22, TM26, TM79, and/or TM82 antibodies; Bin 2: competes for binding to the same or overlapping TMEM106B region as the TM3, TM9, TM10, TM11, TM12, TM13, TM18, TM19, TM21, TM24, TM25, TM32, TM35, TM37, TM42, TM45, TM48, TM54, TM59, TM60, TM61, and/or TM76 antibodies; Bin 3: competes for binding to the same or overlapping TMEM106B region as the TM7, TM15, TM83, and/or TM84 antibodies; Bin 4: competes for binding to the same or overlapping TMEM106B region as the TMS, TM28, TM29, TM30, TM63, TM64, TM72, TM78, TM80, TM86, and/or TM88 antibodies; Bin 5: does not bind to a truncated TMEM106B comprising amino acids 122-210 of SEQ ID NO:1. The assay is classed as binding. To be noted: for epitope bin: competition for binding to truncated GST-TMEM106B (amino acids 122-210); for Binding Community/Bin: epitope bin number, pre-mix binning on truncated GST-TMEM106B. As to the method:
(§1) Monoclonal anti-TMEM106B antibodies were immobilized to a CMD 50M chip (Xantec # SPMXCMD5OM lot# SCCMD50M0416). The running buffer was HBS-EP+ with 1 mg/mL BSA. The GST-TMEM106B (truncated, comprising amino acids 122-210 of SEQ ID NO:1) antigen was prepared at a final concentration of 55 nM (corresponding to 2 μg/mL) and mixed with the competing analyte anti-TMEM106B antibodies at a final concentration of 333 nM (corresponding to 50 μg/mL) or compared to a buffer control. Samples were injected for 5 minutes over the array and regenerated after every cycle with 1 minute of two parts Pierce IgG-Elution buffer (ThermoFisher Cat#21004) and 1 part of 10 mM Glycine, pH 2.0 (Carterra).
Anti-TMEM106B antibodies sorted into various competing bins and resulting binning profiles. […] Antibodies within Bin 3 or Bin 4 partially block Bin 2 antibodies.
as §1, with “SPMXCMD50M” for “SPMXCMD5OM”, “lmg/ml” for “1 mg/mL”, “(truncated)” for “(truncated, comprising amino acids 122-210 of SEQ ID NO:1)”, “μg/ml)” for “μg/mL)”

GST-TMEM106B (truncated, comprising amino acids 122-210 of SEQ ID NO:1), sequence (Q9NUM4 122-210): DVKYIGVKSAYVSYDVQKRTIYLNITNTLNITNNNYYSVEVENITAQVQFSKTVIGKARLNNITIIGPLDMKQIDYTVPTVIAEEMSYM

B1: TM-7: anti-TMEM106B monoclonal antibody; CDR-H1-3 SEQ ID NO: 8, 41, 84; CDR-L1-3 SEQ ID NO: 126, 166, 190 (antibody, V domains shown)
VH: EVQLQQSGPVLVKPGPPVKISCKASGFTFTDYYIHWVKLSHGKSLEWIGLVYPYNGDTDYNQKFKGKATLTVDTSSSTAYMELNSLTSEDSAVYYCARTYYANSPDYWGQGTTVTVSS
VL: DIVMTQSPSSLSVSAGEKVTMSCKSSQSLLNSGNQRNYLAWYQQKPGQPPKLLIYGASTRESGVPDRFTGSGSGTDFTLTISNVQAEDLAVYYCQNDHSYPLTFGAGTKLELK
For the molecule B1, the epitope bin entry is reported as “Bin 3” and the “Binding Community/Bin” value came out at 3.

B2: TM-86: anti-TMEM106B monoclonal antibody; VH SEQ ID NO: 491, VL SEQ ID NO: 526 (antibody, V domains shown)
VH: EVQLQQSGPVLVKPGASVKMSCKASGYTFTDYYIHWVKQSHGRSLEWIGVISPYNDNTNYNQKFKGKATLTVDKSSSTAYMELNSLTSEDSAVYYCVRTYYSNYFDYWGQGTTLTVSS
VL: DIVMTQSPSSLSVSAGEKVTMSCKSSQSLLNSGNQKNYLAWHQQRPGQPPKLLIYGASTRESGVPDRFTGSGSGTEFTLTISSVQAEDLAVYYCQNDHSYPLTFGAGTKLELK
modifications: Variable Heavy Chain -- TM-86; Variable Light Chain -- TM-86
Regarding B2, the epitope bin result is “Bin 4” and the “Binding Community/Bin” value came out at 4.

B3: TM-28: anti-TMEM106B monoclonal antibody; CDR-H1-3 SEQ ID NO: 8, 59, 102; CDR-L1-3 SEQ ID NO: 142, 166, 190 (antibody, V domains shown)
VH: EVQLQQSGPVLVKPGPSVKISCMASVFTFNDYYIHWVKQSHGKSLEWIGLVYPYNGGTNYNQNFKGKATLTVDTSSRTAYMELNSLTSEDSAVYYCARSYFSNPIGYWGQGTLVTVSE
VL: DIVMTQSPSSLSVSVGEKVTVSCKSSQSLLNSGNQKNYLAWYQQKPGQPPKLLIYGASTRESGVPDRFTGSGSGTDFTLTISSVQAEDLAVYYCQNDHSYPLTFGAGTKLELK
On to B3, for which the epitope bin entry is “Bin 4” and the “Binding Community/Bin” value worked out at 4.

B4: TM-84: anti-TMEM106B monoclonal antibody; VH SEQ ID NO: 489, VL SEQ ID NO: 524 (antibody, V domains shown)
VH: QVQLQQSGAELVKPGASVKMSCKASGYTFTTFPIEWMKQNHGKSLEWIGNFHPYNDDTKYNEKFKGKATLTVEKSSSTVYLELSRLTSDDSAVYYCARYFYGGMDYWGQGTSVTVSS
VL: DIQMTQSPASLSVSVGETVTITCRASENIYSSLGWYHQKQGKSPQLLVFAATNLADGVPSRFSGSGSGTQYSLKINSLQSEDFGTYYCQHLWSVPWTFGGGTKLEIK
modifications: Variable Heavy Chain -- TM-84; Variable Light Chain -- TM-84
Consider B4, for which the epitope bin result was “Bin 3” and the “Binding Community/Bin” value worked out at 3.

B5: TM-19: anti-TMEM106B monoclonal antibody; CDR-H1-3 SEQ ID NO: 13, 53, 96; CDR-L1-3 SEQ ID NO: 136, 175, 200 (antibody, V domains shown)
VH: DVQLQQSGAELVRPGASVKLSCTASGFNIKDYYMYWVKQRPEQGLEWIGRIDPEDGDTENAPKFRGMATMTADTSSNTAYLQLNSLTSEDTAVYYCTTRIGNLYHVMDYWGHGTSVTVSS
VL: DVLMTQTPLSLPVSLGDQASISCRSSQSIVHSNGNTYLEWYLQKPGQAPKLLIDKVFNRFSGVPDRFSGSGSGTDFTLKISRVEAEDLGVYYCFQGSHVPFTFGSGTKLEIK
On to B5, for which the epitope bin entry is “Bin 2” and the “Binding Community/Bin” value was 2.

B6: TM-30: anti-TMEM106B monoclonal antibody; CDR-H1-3 SEQ ID NO: 21, 61, 104; CDR-L1-3 SEQ ID NO: 144, 160, 208 (antibody, V domains shown)
VH: QVQLQQSGPELVKPGASVKLSCKASDNTFTNYDVNWVRQRPGQGLEWIGWIYPRDGTTIYNEKFKGRATLTVDTSSSTAYMELHSLTSEDSAVFFCARTLPQAMDYWGQGTSVTVSS
VL: DVLMTQSPLSLPVSLGDQVSISCRSSQTIVHRNGNTYLEWYLQKPGQSPKLLIYKVSNRFSGVPDRFSGSGSGTDFTLKISRVEAEDLGVYYCFQGSHLPWTFGGGTKLEIK
B6: the epitope bin entry is recorded as “Bin 4” and the “Binding Community/Bin” value stood at 4.

B7: TM-88: anti-TMEM106B monoclonal antibody; VH SEQ ID NO: 493, VL SEQ ID NO: 528 (antibody, V domains shown)
VH: EAQLQQSGPVLVKPGASVKMSCKTSGYTFTDYYINWVKQSHGKSLEWIGVINPYSGATYYTQKFKGKATLTVDKSSSTAYMELNSQTSEDSAVYYCARGGYDYGHWYFDVWGTGTTVTVSS
VL: ETTVTQSPASLSMAIGEKVTIRCITSSDIDDHMNWYRQKPGEPPEFLISEGNALRPGVPSRFSSSGYGTDFIFTIENILSEDVADYYCLQSDNLPLTFGAGTKLELK
modifications: Variable Heavy Chain -- TM-88; Variable Light Chain -- TM-88
Turning to B7, the epitope bin entry is given as “Bin 4” and the “Binding Community/Bin” value is on record as 4.

B8: TM-15: anti-TMEM106B monoclonal antibody; CDR-H1-3 SEQ ID NO: 15, 49, 92; CDR-L1-3 SEQ ID NO: 133, 171, 197 (antibody, V domains shown)
VH: QVQLQQPGAEFVRPGASVKLSCKASGYTFTNYWITWVKQRPGHGLEWIGDIYPGSGNSNYNESFKRKATLTVDTSSSTAYMHLSSQTSEDSAVYFCARKAYGGFPYWGQGTLVTVSA
VL: DIQMTQSPASLSVSVGETVTITCRVSENIYNNLAWYQQKQEKSPQLLVFAATNLADGVPSRFSGSGSGTQFSLKINSLQSEDFGTYYCQHFWDTPFTFGSGTKLEIK
Turning to B8, the epitope bin result was “Bin 3” and the “Binding Community/Bin” value is on record as 3.

B9: TM-21: anti-TMEM106B monoclonal antibody; CDR-H1-3 SEQ ID NO: 18, 54, 97; CDR-L1-3 SEQ ID NO: 137, 168, 201 (antibody, V domains shown)
VH: EVQLVESGGGLVKPGGSLKLSCAASGFTFSNYAMSWVRETPEKRLEWVAFISDGGGYIYYADNVKDRFTISRDNAKNNLYLQMRHLKSEDTAMYYCARDGGTGFTYWGQGTLVTVSV
VL: DIVMTQAAFSNPVTLGTSASISCRSSKSLLHSNGITYLFWYLQKPGQSPQLLIYQMSNLASGVPDRFSSSGSGTDFTLRISRVEAEDVGVYYCVQNLELPYTFGGGTKLEIK
For the molecule B9, the epitope bin result is given as “Bin 2” and the “Binding Community/Bin” value turned out to be 2.

B10: TM-29: anti-TMEM106B monoclonal antibody; CDR-H1-3 SEQ ID NO: 20, 60, 103; CDR-L1-3 SEQ ID NO: 143, 168, 207 (antibody, V domains shown)
VH: QVQLRQSGAELVRPGASVKLSCKASGYTFTDYYINWVKQRPGQGLEWIARIYPGSGYTYYNEKFKGKATLTAEGSSNTAYMQLSSLTSEDSAVYFCANHYTNPFAYWGQGTLVTVSA
VL: DIVMTQAAFSNPVTLGTSASISCRSSKSLLHYNGITYLYWYLQKPGQSPQLLIYQMSNLASGVPDRFSSSGSGTDFTLRISRVEAEDVGVYYCAQNLELPYTFGGGTKLEIK
Turning to B10, the epitope bin entry is on record as “Bin 4” and the “Binding Community/Bin” value was 4.

B11: TM-5: anti-TMEM106B monoclonal antibody; CDR-H1-3 SEQ ID NO: 6, 39, 82; CDR-L1-3 SEQ ID NO: 124, 164, 188 (antibody, V domains shown)
VH: QVQLQQSGTELARPGASVKVSCKASGYIFTTYGITWVKQRGGQGLEWIGEIYPRSDNTYYNEKFKDKATLTADKSSSTAYMELRSLTSEDSAVYFCARSKGSGTGDYWGQGTTVTVSS
VL: DIQMTQSPASLSASVGETVTITCRASENIYIYLAWYQQKQGKTPQLLVYNGKMLAENVPSRFSGSGSGTQFSLKINSLQPEDFGSYYCQHHYGSPPAFGAGTKLELK
As for B11, the epitope bin entry is recorded as “Bin 4” and the “Binding Community/Bin” value was 4.
